Legend:
HeLa Kyoto [1] = experiment: solubility in G1/S (NP-40 vs SDS abundance) (log2 ratio); higher = more soluble; details: cell cycle stage: G1/S
HeLa Kyoto [2] = experiment: melting temperature (median over replicates), in situ; higher = more thermally stable
HeLa Kyoto [3] = experiment: solubility change mitosis vs G1/S (difference of NP-40 vs SDS log2 ratios) (log2 ratio difference); higher = more soluble in mitosis
HeLa Kyoto [4] = experiment: thermal stability score vs G1/S (z-score of summed log2 fold changes over temperatures); higher = more thermally stable than in G1/S
[5] = cell cycle stage: early G1 (4.5 h after nocodazole release)
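Wherever melting temperature (median over replicates), in situ is given: HeLa Kyoto cells synchronized by double thymidine or nocodazole block, proteins quantified by TMT10plex mass spectrometry, three independent biological replicates.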
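Wherever solubility change mitosis vs G1/S (difference of NP-40 vs SDS log2 ratios) is given: synchronized HeLa Kyoto cells (double thymidine block for G1/S, nocodazole release for mitosis), protein amounts in NP-40 versus SDS lysates quantified by mass spectrometry, three biological replicates.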
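Wherever solubility in G1/S (NP-40 vs SDS abundance) is given: HeLa Kyoto cells arrested at G1/S by double thymidine block, proteins quantified by TMT10plex mass spectrometry in mild NP-40 versus SDS extracts, three biological replicates.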
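Wherever thermal stability score vs G1/S (z-score of summed log2 fold changes over temperatures) is given: synchronized HeLa Kyoto cells, proteins quantified by TMT10plex mass spectrometry, three biological replicates, mitosis taken 0.5 h after nocodazole release, G1/S directly after double thymidine block.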

Sequence of LIMD1 (chain, as listed by the source): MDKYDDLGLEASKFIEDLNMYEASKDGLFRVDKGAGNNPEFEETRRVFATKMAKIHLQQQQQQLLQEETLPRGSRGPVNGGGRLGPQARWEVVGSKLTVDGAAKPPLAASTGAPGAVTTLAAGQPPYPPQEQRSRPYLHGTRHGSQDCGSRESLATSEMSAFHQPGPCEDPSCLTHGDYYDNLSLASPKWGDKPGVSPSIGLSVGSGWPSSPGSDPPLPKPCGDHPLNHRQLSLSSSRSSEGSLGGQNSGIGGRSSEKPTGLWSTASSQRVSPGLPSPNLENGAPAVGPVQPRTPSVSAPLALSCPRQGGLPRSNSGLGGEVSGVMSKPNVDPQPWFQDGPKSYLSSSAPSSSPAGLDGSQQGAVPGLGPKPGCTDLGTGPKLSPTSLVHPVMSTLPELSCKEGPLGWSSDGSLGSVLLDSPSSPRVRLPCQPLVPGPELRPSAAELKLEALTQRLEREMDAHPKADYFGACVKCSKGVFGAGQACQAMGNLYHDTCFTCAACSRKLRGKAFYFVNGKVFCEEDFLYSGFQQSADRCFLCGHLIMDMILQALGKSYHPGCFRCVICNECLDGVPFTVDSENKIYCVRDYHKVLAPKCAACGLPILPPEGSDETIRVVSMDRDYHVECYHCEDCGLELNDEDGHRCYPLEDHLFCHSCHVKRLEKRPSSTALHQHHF

Substance	solubility in G1/S (log2) (HeLa Kyoto [1])	melting temperature (HeLa Kyoto [2]; cell cycle stage: G1/S)	melting temperature (HeLa Kyoto [2]; cell cycle stage: mitosis)	solubility change mitosis (log2) (HeLa Kyoto [3])	thermal stability score (HeLa Kyoto [4]; [5])	thermal stability score (HeLa Kyoto [4]; cell cycle stage: mitosis)
MAVYVGMLRLGRLCAGSSGVLGARAALSRSWQEARLQGVRFLSSREVDRMVSTPIGGLSYVQGCTKKHLNSKTVGQCLETTAQRVPEREALVVLHEDVRLTFAQLKEEVDKAASGLLSIGLCKGDRLGMWGPNSYAWVLMQLATAQAGIILVSVNPAYQAMELEYVLKKVGCKALVFPKQFKTQQYYNVLKQICPEVENAQPGALKSQRLPDLTTVISVDAPLPGTLLLDEVVAAGSTRQHLDQLQYNQQFLSCHDPINIQFTSGTTGSPKGATLSHYNIVNNSNILGERLKLHEKTPEQLRMILPNPLYHCLGSVAGTMMCLMYGATLILASPIFNGKKALEAISRERGTFLYGTPTMFVDILNQPDFSSYDISTMCGGVIAGSPAPPELIRAIINKINMKDLVVAYGTTENSPVTFAHFPEDTVEQKAESVGRIMPHTEARIMNMEAGTLAKLNTPGELCIRGYCVMLGYWGEPQKTEEAVDQDKWYWTGDVATMNEQGFCKIVGRSKDMIIRGGENIYPAELEDFFHTHPKVQEVQVVGVKDDRMGEEICACIRLKDGEETTVEEIKAFCKGKISHFKIPKYIVFVTNYPLTISGKIQKFKLREQMERHLNL [ACSF2]	0.27	49.4 °C	49.8 °C	-0.0628	0.261	0.668
MEKFGMNFGGGPSKKDLLETIETQKKQLLQYQARLKDVVRAYKSLLKEKEALEASIKVLSVSHEADVGLAGVQLPGLTFPDSVDDRCSTHSEDSTGTATSLDTAASLTSTKGEFGVEDDRPARGPPPPKSEEASWSESGVSSSSGDGPFAGGEVDKRLHQLKTQLATLTSSLATVTQEKSRMEASYLADKKKMKQDLEDASNKAEEERARLEGELKGLQEQIAETKARLITQQHDRAQEQSDHALMLRELQKLLQEERTQRQDLELRLEETREALAGRAYAAEQMEGFELQTKQLTREVEELKSELQAIRDEKNQPDPRLQELQEEAARLKSHFQAQLQQEMRKTALAEDQLRQQSQVEEQRVAALENQISEVSELLGTYEKAKQKDQLAIQKLKERILQLDLENKTLALAASSRSPLDSHGEESSLDVNVLKDKMEKLKRLLQVAARKSQVTLDVEKLCDLEIMPSSEAADGEKATALYYQQELKQLKEEFERYKMRAQVVLKSKNTKDGNLGKELEAAQEQLAELKEKYISLRLSCEELEHQHQQEADDWKQELARLQQLHRQELERCQLDFRDRTLKLEEELHKQRDRALAVLTEKDLELEQLRSVALASGLPGRRSPVGGGGPGDPADTSSSDSLTQALQLAAANEPTFFLYAEQLARKEVEITSLRKQKHRLEVEVHQLQDRLLEEGERHREEVAALQSHIEKNIRDQSREGANLEYLKNIIYRFLTLPDSLGRQQTLTAILTILHFSPEEKQVIMRLPTSASWWPSGKR [GCC1]	0.527	48.7 °C	51.5 °C	-0.114	-0.43	0.117
MKKMSRNVLLQMEEEEDDDDGDIVLENLGQTIVPDLGSLESQHDFRTPEFEEFNGKPDSLFFNDGQRRIDFVLVYEDESRKETNKKGTNEKQRRKRQAYESNLICHGLQLEATRSVLDDKLVFVKVHAPWEVLCTYAEIMHIKLPLKPNDLKNRSSAFGTLNWFTKVLSVDESIIKPEQEFFTAPFEKNRMNDFYIVDRDAFFNPATRSRIVYFILSRVKYQVINNVSKFGINRLVNSGIYKAAFPLHDCKFRRQSEDPSCPNERYLLYREWAHPRSIYKKQPLDLIRKYYGEKIGIYFAWLGYYTQMLLLAAVVGVACFLYGYLNQDNCTWSKEVCHPDIGGKIIMCPQCDRLCPFWKLNITCESSKKLCIFDSFGTLVFAVFMGVWVTLFLEFWKRRQAELEYEWDTVELQQEEQARPEYEARCTHVVINEITQEEERIPFTAWGKCIRITLCASAVFFWILLIIASVIGIIVYRLSVFIVFSAKLPKNINGTDPIQKYLTPQTATSITASIISFIIIMILNTIYEKVAIMITNFELPRTQTDYENSLTMKMFLFQFVNYYSSCFYIAFFKGKFVGYPGDPVYWLGKYRNEECDPGGCLLELTTQLTIIMGGKAIWNNIQEVLLPWIMNLIGRFHRVSGSEKITPRWEQDYHLQPMGKLGLFYEYLEMIIQFGFVTLFVASFPLAPLLALVNNILEIRVDAWKLTTQFRRLVPEKAQDIGAWQPIMQGIAILAVVTNAMIIAFTSDMIPRLVYYWSFSVPPYGDHTSYTMEGYINNTLSIFKVADFKNKSKGNPYSDLGNHTTCRYRDFRYPPGHPQEYKHNIYYWHVIAAKLAFIIVMEHVIYSVKFFISYAIPDVSKRTKSKIQREKYLTQKLLHENHLKDMTKNMGVIAERMIEAVDNNLRPKSE [ANO6]	0.0135	54.6 °C	54.3 °C	-0.0681	0.734	0.413
MADSELQLVEQRIRSFPDFPTPGVVFRDISPVLKDPASFRAAIGLLARHLKATHGGRIDYIAGLDSRGFLFGPSLAQELGLGCVLIRKRGKLPGPTLWASYSLEYGKAELEIQKDALEPGQRVVVVDDLLATGGTMNAACELLGRLQAEVLECVSLVELTSLKGREKLAPVPFFSLLQYE [APRT]	0.361	57.1 °C	55.8 °C	-0.0341	3.79	2.38
LIMD1	0.148	51.8 °C	51.9 °C	-0.126	0.183	-0.541
MYO5B	-0.588	49.7 °C	53.1 °C	0.158	-0.778	-0.163
MSSDFEGYEQDFAVLTAEITSKIARVPRLPPDEKKQMVANVEKQLEEAKELLEQMDLEVREIPPQSRGMYSNRMRSYKQEMGKLETDFKRSRIAYSDEVRNELLGDDGNSSENQRAHLLDNTERLERSSRRLEAGYQIAVETEQIGQEMLENLSHDREKIQRARERLRETDANLGKSSRILTGMLRRIIQNRILLVILGIIVVITILMAITFSVRRH [VTI1A]	0.0215	55.6 °C	55.8 °C	-0.165	-4.18	-3.25
MAAPRAGRGAGWSLRAWRALGGIRWGRRPRLTPDLRALLTSGTSDPRARVTYGTPSLWARLSVGVTEPRACLTSGTPGPRAQLTAVTPDTRTREASENSGTRSRAWLAVALGAGGAVLLLLWGGGRGPPAVLAAVPSPPPASPRSQYNFIADVVEKTAPAVVYIEILDRHPFLGREVPISNGSGFVVAADGLIVTNAHVVADRRRVRVRLLSGDTYEAVVTAVDPVADIATLRIQTKEPLPTLPLGRSADVRQGEFVVAMGSPFALQNTITSGIVSSAQRPARDLGLPQTNVEYIQTDAAIDFGNSGGPLVNLDGEVIGVNTMKVTAGISFAIPSDRLREFLHRGEKKNSSSGISGSQRRYIGVMMLTLSPSILAELQLREPSFPDVQHGVLIHKVILGSPAHRAGLRPGDVILAIGEQMVQNAEDVYEAVRTQSQLAVQIRRGRETLTLYVTPEVTE [HTRA2]	0.168	56.9 °C	56.5 °C	0.028	-2.4	-3.14
MGLLAFLKTQFVLHLLVGFVFVVSGLVINFVQLCTLALWPVSKQLYRRLNCRLAYSLWSQLVMLLEWWSCTECTLFTDQATVERFGKEHAVIILNHNFEIDFLCGWTMCERFGVLGSSKVLAKKELLYVPLIGWTWYFLEIVFCKRKWEEDRDTVVEGLRRLSDYPEYMWFLLYCEGTRFTETKHRVSMEVAAAKGLPVLKYHLLPRTKGFTTAVKCLRGTVAAVYDVTLNFRGNKNPSLLGILYGKKYEADMCVRRFPLEDIPLDEKEAAQWLHKLYQEKDALQEIYNQKGMFPGEQFKPARRPWTLLNFLSWATILLSPLFSFVLGVFASGSPLLILTFLGFVGAASFGVRRLIGVTEIEKGSSYGNQEFKKKE [AGPAT3]	-0.0836	52.2 °C	52.4 °C	-0.0117	-0.691	-1.45
MSNPFAHLAEPLDPVQPGKKFFNLNKLEDSRYGRLPFSIRVLLEAAIRNCDEFLVKKQDIENILHWNVTQHKNIEVPFKPARVILQDFTGVPAVVDFAAMRDAVKKLGGDPEKINPVCPADLVIDHSIQVDFNRRADSLQKNQDLEFERNRERFEFLKWGSQAFHNMRIIPPGSGIIHQVNLEYLARVVFDQDGYYYPDSLVGTDSHTTMIDGLGILGWGVGGIEAEAVMLGQPISMVLPQVIGYRLMGKPHPLVTSTDIVLTITKHLRQVGVVGKFVEFFGPGVAQLSIADRATIANMCPEYGATAAFFPVDEVSITYLVQTGRDEEKLKYIKKYLQAVGMFRDFNDPSQDPDFTQVVELDLKTVVPCCSGPKRPQDKVAVSDMKKDFESCLGAKQGFKGFQVAPEHHNDHKTFIYDNTEFTLAHGSVVIAAITSCTNTSNPSVMLGAGLLAKKAVDAGLNVMPYIKTSLSPGSGVVTYYLQESGVMPYLSQLGFDVVGYGCMTCIGNSGPLPEPVVEAITQGDLVAVGVLSGNRNFEGRVHPNTRANYLASPPLVIAYAIAGTIRIDFEKEPLGVNAKGQQVFLKDIWPTRDEIQAVERQYVIPGMFKEVYQKIETVNESWNALATPSDKLFFWNSKSTYIKSPPFFENLTLDLQPPKSIVDAYVLLNLGDSVTTDHISPAGNIARNSPAARYLTNRGLTPREFNSYGSRRGNDAVMARGTFANIRLLNRFLNKQAPQTIHLPSGEILDVFDAAERYQQAGLPLIVLAGKEYGAGSSRDWAAKGPFLLGIKAVLAESYERIHRSNLVGMGVIPLEYLPGENADALGLTGQERYTIIIPENLKPQMKVQVKLDTGKTFQAVMRFDTDVELTYFLNGGILNYMIRKMAK [ACO1]	-0.0477	54 °C	53.1 °C	-0.178	-1.5	-0.466
MATRSPGVVISDDEPGYDLDLFCIPNHYAEDLERVFIPHGLIMDRTERLARDVMKEMGGHHIVALCVLKGGYKFFADLLDYIKALNRNSDRSIPMTVDFIRLKSYCNDQSTGDIKVIGGDDLSTLTGKNVLIVEDIIDTGKTMQTLLSLVRQYNPKMVKVASLLVKRTPRSVGYKPDFVGFEIPDKFVVGYALDYNEYFRDLNHVCVISETGKAKYKA [HPRT1]	0.209	58.5 °C	59.7 °C	-0.113	-0.74	-3.12
MEAFQELRKPSARLECDHCSFRGTDYENVQIHMGTIHPEFCDEMDAGGLGKMIFYQKSAKLFHCHKCFFTSKMYSNVYYHITSKHASPDKWNDKPKNQLNKETDPVKSPPLPEHQKIPCNSAEPKSIPALSMETQKLGSVLSPESPKPTPLTPLEPQKPGSVVSPELQTPLPSPEPSKPASVSSPEPPKSVPVCESQKLAPVPSPEPQKPAPVSPESVKATLSNPKPQKQSHFPETLGPPSASSPESPVLAASPEPWGPSPAASPESRKSARTTSPEPRKPSPSESPEPWKPFPAVSPEPRRPAPAVSPGSWKPGPPGSPRPWKSNPSASSGPWKPAKPAPSVSPGPWKPIPSVSPGPWKPTPSVSSASWKSSSVSPSSWKSPPASPESWKSGPPELRKTAPTLSPEHWKAVPPVSPELRKPGPPLSPEIRSPAGSPELRKPSGSPDLWKLSPDQRKTSPASLDFPESQKSSRGGSPDLWKSSFFIEPQKPVFPETRKPGPSGPSESPKAASDIWKPVLSIDTEPRKPALFPEPAKTAPPASPEARKRALFPEPRKHALFPELPKSALFSESQKAVELGDELQIDAIDDQKCDILVQEELLASPKKLLEDTLFPSSKKLKKDNQESSDAELSSSEYIKTDLDAMDIKGQESSSDQEQVDVESIDFSKENKMDMTSPEQSRNVLQFTEEKEAFISEEEIAKYMKRGKGKYYCKICCCRAMKKGAVLHHLVNKHNVHSPYKCTICGKAFLLESLLKNHVAAHGQSLLKCPRCNFESNFPRGFKKHLTHCQSRHNEEANKKLMEALEPPLEEQQI [CHAMP1]	-0.327	48.8 °C	50.3 °C	0.221	1.41	3.68

Reference: the supplement of paper PMC5998384
